Results on 1 molecule are retold here after publication PMC7114414 (Virus Research, 2014).

The experiment concerns the target T1, HR2P-FITC (HR2P peptide labeled with FITC) (MERS-CoV, UniProt K9N5Q8 1251-1286).
T1 peptide: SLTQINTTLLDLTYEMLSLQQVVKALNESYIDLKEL
Put plainly: native gel or EMSA.

For the molecule ANKFNQALGAMQTGFTTTNEAFHKVQDAVNNNAQALSKLASE [HR1P peptide (residues 998-1039 of the MERS-CoV S protein, HR1 domain of the S2 subunit)], the binding result is recorded as “binds”.
